# From patent US20240409619A1 (WISTAR INSTITUTE OF ANATOMY AND BIOLOGY, published 2024)
# B1: DMAb 2381_FcWT (antibody, V domains shown)
# VH: QMQLVQSGPEVKKPGTSVKVSCKASGFTFTSSAVQWVRQARGQRLEWIGWIAVGSGNTNYAQKFQERVSITRDMSTSTAYMELSSLRSEDTAVYYCAAPYCSRTSCHDAFDIWGQGTKVTVSS
# VL: EVVLTQSPGTLSLSPGERATLSCRASQSVSSSYLAWYQQKPGQAPRLLIYGASSRATGIPDRFSGSGSGTDFTLTISRLEPEDFAVYHCQHFGSSSQWTFGQGTKVEIKR
# Target: SARS-COV-2 spike protein, isolate USA-WA1/2020, on pseudotyped virus (SARS-COV-2, UniProt P0DTC2 14-1273)
# Assay: cell-based or functional assay
binder,measurement,value
B1,neutralization potency (IC50) of serum against pseudotyped virus,< 5 ng/mL
